Source: patent US20240101959A1, “USE OF IL-2R-BETA-GAMMA AGONIST PEPTIDES IN CELL MANUFACTURING” (MEDIKINE, INC., priority 2022, published 2024)
Positions of bridges follow the written chain, without caps; N, C: chain ends. No end group written: not given here.

T1: hu-IL-2Rβ subunit (human, UniProt P14784 27-240, limits assumed)
T1 construct: also called human interleukin-2 receptor subunit β; CD122
T1 sequence (looked up): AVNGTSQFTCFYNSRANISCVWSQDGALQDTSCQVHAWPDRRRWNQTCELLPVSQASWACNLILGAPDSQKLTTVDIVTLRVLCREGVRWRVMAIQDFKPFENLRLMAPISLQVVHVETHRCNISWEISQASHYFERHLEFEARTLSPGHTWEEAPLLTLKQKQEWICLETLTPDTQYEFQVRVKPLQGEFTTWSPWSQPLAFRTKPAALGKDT


Molecular target: T1, hu-IL-2Rβ subunit
Test: phage ELISA competition assay

Row | Binder | IC50 [µM]
1 | ARTWWPCWRAKLGELCDLVVPE [SEQ ID NO 427] | < 100
2 | ARTQGWYDCLFAQVGELCDL [SEQ ID NO 442] | < 100
3 | WRILWMQQCWRSHVVNQCAL (not fully specified (bridges); cysteine pairing not given here) [SEQ ID NO 439] | < 100
4 | QTWYLPCWMAKLGELCDLGERD [SEQ ID NO 434] | < 100
5 | WYPCWMALLGELCDQE [SEQ ID NO 81] | < 100
6 | RLVYDCLFAQVGDLCEVIS [SEQ ID NO 438] | < 100
7 | SYMHDCFMAQVGDLCDRFIS [SEQ ID NO 450] | < 100
8 | WLNRHLFNPCWMARLGELCDLE [SEQ ID NO 108] | < 100
9 | QTKLEGWYPCWMAQLGELCDLD [SEQ ID NO 104] | < 100
10 | WYPCWLAQLGEVCDLDDGGGVF [SEQ ID NO 424] | < 100
11 | WGGRYWCWMAKLGDLCDLEDEW [SEQ ID NO 436] | < 100
12 | VPRANAWHPCWMAQLGELCDLE [SEQ ID NO 106] | < 100
13 | SQRWYPCWVAHLGELCDLEGVV [SEQ ID NO 432] | < 100
14 | WGRKEQWLPCWKAQLGELCDLE [SEQ ID NO 105] | < 100
15 | WYPCWIAQVGELCDLDEVSHGR [SEQ ID NO 440] | < 100
16 | GRQQKGWYPCWLAQLGELCDME [SEQ ID NO 107] | < 100
17 | TGEWWPCWVAEVGELCDLERGP (not fully specified (bridges); cysteine pairing not given here) [SEQ ID NO 441] | < 100

Row | Binder | IC50 [µM]
18 | VDEFYPCSMAGLGELCDLERQN [SEQ ID NO 429] | < 100
19 | LQIRKLWACRIDLVGPFCLL [SEQ ID NO 444] | < 100
20 | WTPCWIAQLGELCDLEGRHGTV [SEQ ID NO 419] | < 100
21 | WLPCWLAPLGDLCDMDMSAVMN [SEQ ID NO 422] | < 100
22 | TEMWYPCWMAYQGELCDLDMTY [SEQ ID NO 426] | < 100
23 | EPRWYPCWMAQMGELCDMEMSD [SEQ ID NO 435] | < 100
24 | AQVRREWYPCWMAQLGELCDLT (disulfide 10-19 (inferred)) [SEQ ID NO 109] | < 100
25 | HQGFYSCRLARLGELCDLDTGW [SEQ ID NO 428] | < 100
26 | WRPCWMAHLGDLCDLEMANENP [SEQ ID NO 423] | < 100
27 | KGSWQPCWFAKLGELCDLHPTS [SEQ ID NO 433] | < 100
28 | RPPWYPCWMARLGEVCDMDIML [SEQ ID NO 431] | < 100
29 | FHPCWRALLGELCDLETALGPS [SEQ ID NO 443] | < 100
30 | WWPCWIAQVGELCDLDGPGRPT (disulfide 4-13 (inferred)) [SEQ ID NO 437] | < 100
31 | AWDWYPCSVAALGEICDLDIQD [SEQ ID NO 430] | < 100
32 | FYPCWAAHLGDLCDLEYQEAGP [SEQ ID NO 421] | < 100
33 | LPCWIAQLGDLCDLEPEPSPE [SEQ ID NO 420] | < 100

Now from value to binder:

Row | IC50 [µM] | Binder
34 | < 100 | WWPCWIAQVGELCDLEEESRES [SEQ ID NO 451]
35 | < 100 | EGHWYPCWIAQLGELCDLDW [SEQ ID NO 468]
36 | < 100 | AQVWYPCWLAKVGELCDLDQWN [SEQ ID NO 456]
37 | < 100 | SLAHRSWYPCWLAQVGELCDLD [SEQ ID NO 464]
38 | < 100 | KWAWNPCYIARLGELCDLVEPE [SEQ ID NO 452]
39 | < 100 | WWPCWIADLGELCDLEGPPRGR [SEQ ID NO 453]
40 | < 100 | CYMHDCFMAQVGDLCDRFIS [SEQ ID NO 497]
41 | < 100 | WWPCEIAQIGELCDLEWVRHAE [SEQ ID NO 476]
42 | < 100 | AEYSGRYDCYIAKVGELCDI [SEQ ID NO 445]
43 | < 100 | QNASKGWYPCWIAHVGELCDWD [SEQ ID NO 465]
44 | < 100 | WWPCWVAKLGELCDLEGDASRV [SEQ ID NO 448]
45 | < 100 | NRWWHPCWMARVGELCDLEPDA [SEQ ID NO 447]
46 | < 100 | WEKLQNWYPCWIAQMGELCDLE (not fully specified (bridges); cysteine pairing not given here) [SEQ ID NO 470]
47 | < 100 | MGDSSSWFPCWMAQLGELCDME [SEQ ID NO 459]
48 | < 100 | TNGVLDWWPCWMAQVGELCDLD (not fully specified (bridges); cysteine pairing not given here) [SEQ ID NO 471]
49 | < 100 | RDWWLPCEFALIGELCDLERSW [SEQ ID NO 478]

Row | IC50 [µM] | Binder
50 | < 100 | PTLITWYDCLFAEVGELCDM [SEQ ID NO 454]
51 | < 100 | FGGKMDWYPCWIANLGELCDLK [SEQ ID NO 457]
52 | < 100 | AYYPCELAQLGELCDLYNI [SEQ ID NO 473]
53 | < 100 | HRWYPCWLAHLGELCDLDPMS [SEQ ID NO 466]
54 | < 100 | WTGWSAFYPCSIANLGELCDLD [SEQ ID NO 469]
55 | < 100 | FYPCWIAFVGELCDLE [SEQ ID NO 467]
56 | < 100 | WYPCEFAQLGELCDLLPFPYPA [SEQ ID NO 449]
57 | < 100 | WWPCDFAQIGELCDLGPRFTGE [SEQ ID NO 477]
58 | < 100 | EISNWFLDCMFADVGDLCDL [SEQ ID NO 455]
59 | < 100 | RWDYWPCYIAQVGELCDLEVYE [SEQ ID NO 463]
60 | < 100 | WFPCWMAKVGDLCDVDEHQDPS [SEQ ID NO 458]
61 | < 100 | ERRWYPCWLASVGELCDLDMGD [SEQ ID NO 461]
62 | < 100 | NDHTAWWPCYFAQVGDLCDLV [SEQ ID NO 475]
63 | < 100 | MFRYYPCWIASIGELCDLEWGV [SEQ ID NO 460]
64 | < 100 | SWRFLWQDCGRAHVGELCDL [SEQ ID NO 446]
